The subject of this assay is proteins that co-immunoprecipitated with DUX4-CTD constructs expressed in MB135 myoblasts. Put plainly: LC-MS of proteins co-immunoprecipitated with DUX4-CTD (Table 1) and western validation. It is filed as binding, human. The arrangement: key to 4. mL1dL2 + Dox + IFNG / 4. + IFNG mix / 4. longCTD + Dox + IFNG / 3. + IFNg + Dox longCTD / 3. + Dox longCTD / 3. + IFNG longCTD: peptide-spectrum matches (PSMs) per protein. Particulars: for 4. longCTD + Dox + IFNG: LC-MS counts of the listed protein co-immunoprecipitated with DUX4-CTD bait longCTD, experiment 4, Dox + IFNG; for 3. + IFNg + Dox longCTD: experiment 3, IFNg + Dox; for SUM of PSMS: sum over all samples; for 3. + Dox longCTD: experiment 3, Dox only. The procedure, abridged: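 Two independent experiments compared uninduced, doxycycline and doxycycline+IFNG MB135iDUX4-CTD (plus MB135iDUX4mL1dL2) myoblasts. Anti-FLAG pulldowns (3 h, 4 °C) were eluted in LDS buffer for western validation or with FLAG peptide for trypsin digestion and Orbitrap LC-MS; hits needed ≥2 PSMs in both experiments, ranked by total PSMs.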

B1: Q9NQC3 (protein, UniProt Q9NQC3 1-1192, looked up)
chain: MEDLDQSPLVSSSDSPPRPQPAFKYQFVREPEDEEEEEEEEEEDEDEDLEELEVLERKPAAGLSAAPVPTAPAAGAPLMDFGNDFVPPAPRGPLPAAPPVAPERQPSWDPSPVSSTVPAPSPLSAAAVSPSKLPEDDEPPARPPPPPPASVSPQAEPVWTPPAPAPAAPPSTPAAPKRRGSSGSVDETLFALPAASEPVIRSSAENMDLKEQPGNTISAGQEDFPSVLLETAASLPSLSPLSAASFKEHEYLGNLSTVLPTEGTLQENVSEASKEVSEKAKTLLIDRDLTEFSELEYSEMGSSFSVSPKAESAVIVANPREEIIVKNKDEEEKLVSNNILHNQQELPTALTKLVKEDEVVSSEKAKDSFNEKRVAVEAPMREEYADFKPFERVWEVKDSKEDSDMLAAGGKIESNLESKVDKKCFADSLEQTNHEKDSESSNDDTSFPSTPEGIKDRSGAYITCAPFNPAATESIATNIFPLLGDPTSENKTDEKKIEEKKAQIVTEKNTSTKTSNPFLVAAQDSETDYVTTDNLTKVTEEVVANMPEGLTPDLVQEACESELNEVTGTKIAYETKMDLVQTSEVMQESLYPAAQLCPSFEESEATPSPVLPDIVMEAPLNSAVPSAGASVIQPSSSPLEASSVNYESIKHEPENPPPYEEAMSVSLKKVSGIKEEIKEPENINAALQETEAPYISIACDLIKETKLSAEPAPDFSDYSEMAKVEQPVPDHSELVEDSSPDSEPVDLFSDDSIPDVPQKQDETVMLVKESLTETSFESMIEYENKEKLSALPPEGGKPYLESFKLSLDNTKDTLLPDEVSTLSKKEKIPLQMEELSTAVYSNDDLFISKEAQIRETETFSDSSPIEIIDEFPTLISSKTDSFSKLAREYTDLEVSHKSEIANAPDGAGSLPCTELPHDLSLKNIQPKVEEKISFSDDFSKNGSATSKVLLLPPDVSALATQAEIESIVKPKVLVKEAEKKLPSDTEKEDRSPSAIFSAELSKTSVVDLLYWRDIKKTGVVFGASLFLLLSLTVFSIVSVTAYIALALLSVTISFRIYKGVIQAIQKSDEGHPFRAYLESEVAISEELVQKYSNSALGHVNCTIKELRRLFLVDDLVDSLKFAVLMWVFTYVGALFNGLTLLILALISLFSVPVIYERHQAQIDHYLGLANKNVKDAMAKIQAKIPGLKRKAE
modifications: full-length
On to B1, for which the “4. longCTD + Dox + IFNG” value is reported as 6 and the “SUM of PSMS” value amounted to 23. In addition, the “3. + IFNg + Dox longCTD” value (bait longCTD) amounted to 7.

B2: P13489 (protein, UniProt P13489 1-461, looked up)
chain: MSLDIQSLDIQCEELSDARWAELLPLLQQCQVVRLDDCGLTEARCKDISSALRVNPALAELNLRSNELGDVGVHCVLQGLQTPSCKIQKLSLQNCCLTGAGCGVLSSTLRTLPTLQELHLSDNLLGDAGLQLLCEGLLDPQCRLEKLQLEYCSLSAASCEPLASVLRAKPDFKELTVSNNDINEAGVRVLCQGLKDSPCQLEALKLESCGVTSDNCRDLCGIVASKASLRELALGSNKLGDVGMAELCPGLLHPSSRLRTLWIWECGITAKGCGDLCRVLRAKESLKELSLAGNELGDEGARLLCETLLEPGCQLESLWVKSCSFTAACCSHFSSVLAQNRFLLELQISNNRLEDAGVRELCQGLGQPGSVLRVLWLADCDVSDSSCSSLAATLLANHSLRELDLSNNCLGDAGILQLVESVRQPGCLLEQLVLYDIYWSEEMEDRLQALEKDKPSLRVIS
modifications: full-length
Regarding B2, the “4. longCTD + Dox + IFNG” value is listed as 4 and the “SUM of PSMS” value was found to be 15. The “3. + IFNG longCTD” value (bait longCTD, experiment 3, IFNG only, no doxycycline (bait at background level)) stood at 1.

B3: O14929 (protein, UniProt O14929 1-419, looked up)
chain: MAGFGAMEKFLVEYKSAVEKKLAEYKCNTNTAIELKLVRFPEDLENDIRTFFPEYTHQLFGDDETAFGYKGLKILLYYIAGSLSTMFRVEYASKVDENFDCVEADDVEGKIRQIIPPGFCTNTNDFLSLLEKEVDFKPFGTLLHTYSVLSPTGGENFTFQIYKADMTCRGFREYHERLQTFLMWFIETASFIDVDDERWHYFLVFEKYNKDGATLFATVGYMTVYNYYVYPDKTRPRVSQMLILTPFQGQGHGAQLLETVHRYYTEFPTVLDITAEDPSKSYVKLRDFVLVKLCQDLPCFSREKLMQGFNEDMVIEAQQKFKINKQHARRVYEILRLLVTDMSDAEQYRSYRLDIKRRLISPYKKKQRDLAKMRKCLRPEELTNQMNQIEISMQHEQLEESFQELVEDYRRVIERLAQE
modifications: full-length
In the case of B3, the “4. longCTD + Dox + IFNG” value stood at 9 and the “SUM of PSMS” value was 23. Besides, the “3. + IFNg + Dox longCTD” value (bait longCTD) is recorded as 3.

B4: Q16576 (protein, UniProt Q16576 1-425, looked up)
chain: MASKEMFEDTVEERVINEEYKIWKKNTPFLYDLVMTHALQWPSLTVQWLPEVTKPEGKDYALHWLVLGTHTSDEQNHLVVARVHIPNDDAQFDASHCDSDKGEFGGFGSVTGKIECEIKINHEGEVNRARYMPQNPHIIATKTPSSDVLVFDYTKHPAKPDPSGECNPDLRLRGHQKEGYGLSWNSNLSGHLLSASDDHTVCLWDINAGPKEGKIVDAKAIFTGHSAVVEDVAWHLLHESLFGSVADDQKLMIWDTRSNTTSKPSHLVDAHTAEVNCLSFNPYSEFILATGSADKTVALWDLRNLKLKLHTFESHKDEIFQVHWSPHNETILASSGTDRRLNVWDLSKIGEEQSAEDAEDGPPELLFIHGGHTAKISDFSWNPNEPWVICSVSEDNIMQIWQMAENIYNDEESDVTTSELEGQGS
modifications: full-length
Take B4: the “4. longCTD + Dox + IFNG” value turned out to be 5 and the “SUM of PSMS” value is reported as 25. The “3. + IFNg + Dox longCTD” value (bait longCTD) is listed as 4.

B5: Q15393 (protein, UniProt Q15393 1-1217, looked up)
chain: MFLYNLTLQRATGISFAIHGNFSGTKQQEIVVSRGKILELLRPDPNTGKVHTLLTVEVFGVIRSLMAFRLTGGTKDYIVVGSDSGRIVILEYQPSKNMFEKIHQETFGKSGCRRIVPGQFLAVDPKGRAVMISAIEKQKLVYILNRDAAARLTISSPLEAHKANTLVYHVVGVDVGFENPMFACLEMDYEEADNDPTGEAAANTQQTLTFYELDLGLNHVVRKYSEPLEEHGNFLITVPGGSDGPSGVLICSENYITYKNFGDQPDIRCPIPRRRNDLDDPERGMIFVCSATHKTKSMFFFLAQTEQGDIFKITLETDEDMVTEIRLKYFDTVPVAAAMCVLKTGFLFVASEFGNHYLYQIAHLGDDDEEPEFSSAMPLEEGDTFFFQPRPLKNLVLVDELDSLSPILFCQIADLANEDTPQLYVACGRGPRSSLRVLRHGLEVSEMAVSELPGNPNAVWTVRRHIEDEFDAYIIVSFVNATLVLSIGETVEEVTDSGFLGTTPTLSCSLLGDDALVQVYPDGIRHIRADKRVNEWKTPGKKTIVKCAVNQRQVVIALTGGELVYFEMDPSGQLNEYTERKEMSADVVCMSLANVPPGEQRSRFLAVGLVDNTVRIISLDPSDCLQPLSMQALPAQPESLCIVEMGGTEKQDELGERGSIGFLYLNIGLQNGVLLRTVLDPVTGDLSDTRTRYLGSRPVKLFRVRMQGQEAVLAMSSRSWLSYSYQSRFHLTPLSYETLEFASGFASEQCPEGIVAISTNTLRILALEKLGAVFNQVAFPLQYTPRKFVIHPESNNLIIIETDHNAYTEATKAQRKQQMAEEMVEAAGEDERELAAEMAAAFLNENLPESIFGAPKAGNGQWASVIRVMNPIQGNTLDLVQLEQNEAAFSVAVCRFSNTGEDWYVLVGVAKDLILNPRSVAGGFVYTYKLVNNGEKLEFLHKTPVEEVPAAIAPFQGRVLIGVGKLLRVYDLGKKKLLRKCENKHIANYISGIQTIGHRVIVSDVQESFIWVRYKRNENQLIIFADDTYPRWVTTASLLDYDTVAGADKFGNICVVRLPPNTNDEVDEDPTGNKALWDRGLLNGASQKAEVIMNYHVGETVLSLQKTTLIPGGSESLVYTTLSGGIGILVPFTSHEDHDFFQHVEMHLRSEHPPLCGRDHLSFRSYYFPVKNVIDGDLCEQFNSMEPNKQKNVSEELDRTPPEVSKKLEDIRTRYAF
modifications: full-length
With B5, the “4. longCTD + Dox + IFNG” value is 1 and the “SUM of PSMS” value worked out at 15. For the same molecule, under “bait longCTD”, the “3. + Dox longCTD” value is 1 and the “3. + IFNg + Dox longCTD” value came to 3.

B6: P11802 (protein, UniProt P11802 1-303, looked up)
chain: MATSRYEPVAEIGVGAYGTVYKARDPHSGHFVALKSVRVPNGGGGGGGLPISTVREVALLRRLEAFEHPNVVRLMDVCATSRTDREIKVTLVFEHVDQDLRTYLDKAPPPGLPAETIKDLMRQFLRGLDFLHANCIVHRDLKPENILVTSGGTVKLADFGLARIYSYQMALTPVVVTLWYRAPEVLLQSTYATPVDMWSVGCIFAEMFRRKPLFCGNSEADQLGKIFDLIGLPPEDDWPRDVSLPRGAFPPRGPRPVQSVVPEMEESGAQLLLEMLTFNPHKRISAFRALQHSYLHKDEGNPE
modifications: full-length
With B6, the “4. longCTD + Dox + IFNG” value worked out at 11 and the “SUM of PSMS” value is reported as 16. Further, where the note is “bait longCTD”, the “3. + Dox longCTD” value is given as 1 and the “3. + IFNg + Dox longCTD” value came to 1.

B7: P42224 (protein, UniProt P42224 1-750, looked up)
chain: MSQWYELQQLDSKFLEQVHQLYDDSFPMEIRQYLAQWLEKQDWEHAANDVSFATIRFHDLLSQLDDQYSRFSLENNFLLQHNIRKSKRNLQDNFQEDPIQMSMIIYSCLKEERKILENAQRFNQAQSGNIQSTVMLDKQKELDSKVRNVKDKVMCIEHEIKSLEDLQDEYDFKCKTLQNREHETNGVAKSDQKQEQLLLKKMYLMLDNKRKEVVHKIIELLNVTELTQNALINDELVEWKRRQQSACIGGPPNACLDQLQNWFTIVAESLQQVRQQLKKLEELEQKYTYEHDPITKNKQVLWDRTFSLFQQLIQSSFVVERQPCMPTHPQRPLVLKTGVQFTVKLRLLVKLQELNYNLKVKVLFDKDVNERNTVKGFRKFNILGTHTKVMNMEESTNGSLAAEFRHLQLKEQKNAGTRTNEGPLIVTEELHSLSFETQLCQPGLVIDLETTSLPVVVISNVSQLPSGWASILWYNMLVAEPRNLSFFLTPPCARWAQLSEVLSWQFSSVTKRGLNVDQLNMLGEKLLGPNASPDGLIPWTRFCKENINDKNFPFWLWIESILELIKKHLLPLWNDGCIMGFISKERERALLKDQQPGTFLLRFSESSREGAITFTWVERSQNGGEPDFHAVEPYTKKELSAVTFPDIIRNYKVMAAENIPENPLKYLYPNIDKDHAFGKYYSRPKEAPEPMELDGPKGTGYIKTELISVSEVHPSRLQTTDNLLPMSPEEFDEVSRIVGSVEFDSMMNTV
modifications: full-length
For B7, the “4. longCTD + Dox + IFNG” value stood at 19 and the “SUM of PSMS” value was found to be 43. Further, the “3. + IFNg + Dox longCTD” value (bait longCTD) was 3.

For the origin of these results see patent US20250339531A1, “DUX4 POLYPEPTIDES AND NUCLEIC ACIDS FOR TREATING INFLAMMATORY AND AUTOIMMUNE CONDITIONS” (Fred Hutchinson Cancer Center, priority 2021, published 2025).
